Laboratory results published in patent US20190092862A1 (GENERON SHANGHAI, published 2019).

Legend:
[1] = biological target: T1, huEpCAM.Fc (human EpCAM antigen construct) (human, UniProt P16422 24-265, limits assumed); assay: BLI (Octet QKe), antigen-Fc captured on AHC biosensor, ITAB1002 in solution
T1 construct: not shown: human IgG Fc
T1 sequence (looked up): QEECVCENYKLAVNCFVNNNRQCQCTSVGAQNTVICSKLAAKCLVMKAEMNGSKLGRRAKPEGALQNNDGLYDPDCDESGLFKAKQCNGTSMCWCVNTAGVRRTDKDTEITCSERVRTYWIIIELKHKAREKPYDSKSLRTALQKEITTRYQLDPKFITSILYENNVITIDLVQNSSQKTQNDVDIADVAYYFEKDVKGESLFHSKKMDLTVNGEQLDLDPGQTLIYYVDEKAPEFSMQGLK
Protocol: (§1) The expressions of the antigen constructs is described in U.S. Pat. No. 8,846,042. The antigen constructs were diluted to 0.02 mg/mL with dilution(PBS, 0.1% BSA, 0.02% Tween-20, 0.05% NaN3), and then immobilized on an anti-hIgG Fc capture (AHC) biosensor. […] The control wells containing only PBS were also set up. The detection results were analyzed using ForteBio Data Acquisition and ForteBio Data Analysis software.

[2] = biological target: T2, cynoCD3ε AA 1-27.Fc (cynomolgus CD3 antigen construct) (cynomolgus monkey; human, UniProt Q95LI5 22-48); assay: as above
T2 construct: range 1-27; not shown: human IgG Fc
T2 chain (looked up): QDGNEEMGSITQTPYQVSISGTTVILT
Protocol: as §1

[3] = biological target: cynoEpCAM.Fc (cynomolgus EpCAM antigen construct) (cynomolgus monkey; human); assay: as above
Protocol: as §1

[4] = biological target: T3, human EpCAM on SW480 cells (human, UniProt P16422 24-314); assay: flow cytometry on SW480 cells expressing human EpCAM
T3 construct: whole, on cells; also called SW480 cells expressing human EpCAM; human colon cancer cell line SW480
T3 sequence (looked up): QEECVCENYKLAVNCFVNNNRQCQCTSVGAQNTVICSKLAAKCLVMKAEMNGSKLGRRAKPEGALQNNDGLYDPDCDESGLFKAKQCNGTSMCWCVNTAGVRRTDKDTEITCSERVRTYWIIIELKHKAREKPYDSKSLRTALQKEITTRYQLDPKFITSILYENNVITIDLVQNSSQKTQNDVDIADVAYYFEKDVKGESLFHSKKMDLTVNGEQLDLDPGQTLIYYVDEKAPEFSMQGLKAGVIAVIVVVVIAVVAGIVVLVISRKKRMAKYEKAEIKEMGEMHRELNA
Protocol: (§2) SW480 cells and CyEpCAM-CHO cells were trypsinized with 0.25% Trypsin-EDTA (Gibco), resuspended with a FACS buffer. […] Cells were then washed with the FACS buffer and resuspended in 50 μL FACS buffer. Mouse anti-Human IgG Fab Secondary Antibody PE conjugate(Invitrogen) were added, and allowed for incubation at 4° C. for 30 min. 150 μL FACS buffer was finally added, and the samples were analyzed using ACCURI® C6 Cytometer (BD Biosciences).

[5] = biological target: T1, huEpCAM.Fc (human EpCAM antigen …); assay: BLI (Octet QKe), antigen-Fc captured on AHC biosensor
Protocol: as §1

human CD3 on human PBMC = biological target: T4, human CD3 on human PBMC (human, UniProt P07766 23-207); assay: flow cytometry (FACS) on human PBMC, detection with PE mouse anti-human lambda light chain, co-staining with CD4 antibody; y axis Binding rate (%)
T4 construct: whole, on cells; also called hPBMC; huPBMC
Protocol: Cells were washed with the FACS buffer once, resuspended in 50 μL FACS buffer, supplemented with CD4 Antibody (RFT-4g) APC-Cy7® conjugate(Invitrogen) and PE Mouse Anti-Human Light Chain […], (BD Pharmingen™), and incubated at room temperature for 45 min. 150 μL FACS buffer was finally added, and the samples were analyzed using ACCURI® C6 Cytometer (BD Biosciences).

[6] = biological target: T5, cynomolgus monkey EpCAM on transfected CHO cells (CyEpCAM-CHO) (cynomolgus monkey); assay: flow cytometry on CHO cells expressing cynomolgus monkey EpCAM (CyEpCAM-CHO)
T5 construct: whole, on cells; also called CHO cells expressing cynomolgus monkey EpCAM on the cell surface
Protocol: as §2

T4 sequence (P07766 23-207): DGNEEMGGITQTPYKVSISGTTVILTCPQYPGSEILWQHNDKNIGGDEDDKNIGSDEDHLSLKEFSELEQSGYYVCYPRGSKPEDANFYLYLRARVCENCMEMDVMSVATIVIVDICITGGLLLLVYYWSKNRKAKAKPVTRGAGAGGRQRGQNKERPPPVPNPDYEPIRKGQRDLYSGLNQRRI
T5 sequence (Q1WER1 24-314): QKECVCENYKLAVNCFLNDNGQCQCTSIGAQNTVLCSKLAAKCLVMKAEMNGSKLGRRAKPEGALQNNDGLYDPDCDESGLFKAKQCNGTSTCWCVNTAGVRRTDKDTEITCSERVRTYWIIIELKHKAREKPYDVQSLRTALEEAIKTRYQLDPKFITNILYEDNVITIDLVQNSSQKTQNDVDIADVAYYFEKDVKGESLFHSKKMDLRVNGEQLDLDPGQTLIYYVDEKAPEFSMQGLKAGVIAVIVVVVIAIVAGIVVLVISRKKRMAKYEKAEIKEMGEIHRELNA

Binder | Kd [1] [nM] | Kd [2] [nM] | Kd [3] [nM] | EC50 [4] [µg/mL] | Kd [5] [nM] | koff [5] [s⁻¹] | kon [5] [M⁻¹ s⁻¹] | EC50 (read off the curve) (human CD3 on human PBMC) [µg/mL] | EC50 [6] [µg/mL]
ITAB1002 (exemplary EpCAM×CD3 Fab fusion protein) (bispecific antibody, An anti-EpCAM scFv is fused to the N-terminus of each chain of an anti-CD3 Fab; there is no Fc; also called EpCAM x CD3 Fab fusion protein; ITB1002) heavy: EVQLVESGGGLVQPGGSLRLSCAASGFTFSNYWMSWVRQAPGKGLEWVANIKQDGSEKFYADSVKGRFTISRDNAKNSLYLQMNSLRAEDTAVYYCARVGPSWEQDYWGQGTLVTVSAGGGGSGGGGSGGGGSGAQSVLTQPPSVSGAPGQRVTISCTGSSSNIGSYYGVHWYQQLPGTAPKLLIYSDTNRPSGVPDRFSGSKSGTSASLAITGLQAEDEADYYCQSYDKGFGHRVFGGGTKLTVLGGEVQLVESGGGLVQPGGSLRLSCAASGFTFNTYAMNWVRQAPGKGLEWVARIRSKYNNYATYYADSVKDRFTISRDDSKNTLYLQMNSLRAEDTAVYYCVRHGNFGNSYVSWFAYWGQGTMVTVSSASTKGPSVFPLAPSSKSTSGGTAALGCLVKDYFPEPVTVSWNSGALTSGVHTFPAVLQSSGLYSLSSVVTVPSSSLGTQTYICNVNHKPSNTKVDKKVEPKSCPPCS light: EVQLVESGGGLVQPGGSLRLSCAASGFTFSNYWMSWVRQAPGKGLEWVANIKQDGSEKFYADSVKGRFTISRDNAKNSLYLQMNSLRAEDTAVYYCARVGPSWEQDYWGQGTLVTVSAGGGGSGGGGSGGGGSGAQSVLTQPPSVSGAPGQRVTISCTGSSSNIGSYYGVHWYQQLPGTAPKLLIYSDTNRPSGVPDRFSGSKSGTSASLAITGLQAEDEADYYCQSYDKGFGHRVFGGGTKLTVLGGQAVVTQEPSLTVSPGGTVTLTCRSSTGAVTTSNYANWVQQKPGQAPRGLIGGTNKRAPGTPARFSGSLLGGKAALTLSGVQPEDEAEYYCALWYSNLWVFGGGTKLTVLGQPKAAPSVTLFPPSSEELQANKATLVCLISDFYPGAVTVAWKADSSPVKAGVETTTPSKQSNNKYAASSYLSLTPEQWKSHRSYSCQVTHEGSTVEKTVAPTECPPCS | 3.49 | 15.6 | 4.71 | 0.411 | 2.49 | 4.98e-05 | 20000 | ~0.1 | 0.108
ITAB1012 (EpCAM×CD3 Fab fusion protein with a different EpCAM scFv) (bispecific antibody, Its EpCAM scFv has different HVRs from that of ITAB1002; It has the same anti-CD3 Fab and was transiently expressed; also called EpCAMA×CD3 Fab fusion protein) heavy: EVQLVESGGGLVQPGGSLRLSCAASGFTFSNYWMSWVRQAPGKGLEWVANIKQDGSEKFYVDSVKGRFTISRDNAKNSLYLQMNSLRAEDMAVYYCARVGGAWELGYWGQGTLVTVSAGGGGSGGGGSGGGGSGAQSVLTQPPSVSGAPGQRVTISCTGSSSNIGSYYGVHWYQQLPGTAPKLLIYSDTNRPSGVPDRFSGSKSGTSASLAITGLQAEDEADYYCQSYDSSLSGRVFGGGTKLTVLGGEVQLVESGGGLVQPGGSLRLSCAASGFTFNTYAMNWVRQAPGKGLEWVARIRSKYNNYATYYADSVKDRFTISRDDSKNTLYLQMNSLRAEDTAVYYCVRHGNFGNSYVSWFAYWGQGTMVTVSSASTKGPSVFPLAPSSKSTSGGTAALGCLVKDYFPEPVTVSWNSGALTSGVHTFPAVLQSSGLYSLSSVVTVPSSSLGTQTYICNVNHKPSNTKVDKKVEPKSCPPCS light: EVQLVESGGGLVQPGGSLRLSCAASGFTFSNYWMSWVRQAPGKGLEWVANIKQDGSEKFYVDSVKGRFTISRDNAKNSLYLQMNSLRAEDMAVYYCARVGGAWELGYWGQGTLVTVSAGGGGSGGGGSGGGGSGAQSVLTQPPSVSGAPGQRVTISCTGSSSNIGSYYGVHWYQQLPGTAPKLLIYSDTNRPSGVPDRFSGSKSGTSASLAITGLQAEDEADYYCQSYDSSLSGRVFGGGTKLTVLGGQAVVTQEPSLTVSPGGTVTLTCRSSTGAVTTSNYANWVQQKPGQAPRGLIGGTNKRAPGTPARFSGSLLGGKAALTLSGVQPEDEAEYYCALWYSNLWVFGGGTKLTVLGQPKAAPSVTLFPPSSEELQANKATLVCLISDFYPGAVTVAWKADSSPVKAGVETTTPSKQSNNKYAASSYLSLTPEQWKSHRSYSCQVTHEGSTVEKTVAPTECPPCS | – | – | – | – | 47.8 | 0.00647 | 135000 | – | –
